Test results published in article PMC3630167 (2013).
No end group written: not given here.

B1: mAb F26G3 IgG1 subclass switch variant (antibody, V domains shown)
VH: EVQLVESGGGLVQPKGSLKLSCAASGFTFNTYAMNWVRQAPGKGLEWVARIRSKSNNYATYYADSVKDRFTISRDDSQSMLYLQMNNLKTEDTAMYYCVRGYYGWDYWGQGTSVTVSS
VL: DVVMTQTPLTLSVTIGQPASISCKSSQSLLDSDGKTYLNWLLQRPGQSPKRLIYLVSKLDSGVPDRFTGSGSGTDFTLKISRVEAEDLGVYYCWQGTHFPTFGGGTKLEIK
B2: mAb F26G3 IgG2a subclass switch variant (antibody, V domains shown)
VH: EVQLVESGGGLVQPKGSLKLSCAASGFTFNTYAMNWVRQAPGKGLEWVARIRSKSNNYATYYADSVKDRFTISRDDSQSMLYLQMNNLKTEDTAMYYCVRGYYGWDYWGQGTSVTVSS
VL: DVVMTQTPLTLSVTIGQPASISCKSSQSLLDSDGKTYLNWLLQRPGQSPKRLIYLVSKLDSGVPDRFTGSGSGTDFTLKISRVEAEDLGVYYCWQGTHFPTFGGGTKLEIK
B3: mAb F24F2 IgG2b subclass switch variant (antibody, V domains shown)
VH: EVQLVESGGGLVQPKGSLKLSCAASGFTFNTYAMNWVRQAPGKGLEWVARIRSKSNNYATYYADSVKDRFTISRDDSQSMLYLQMNNLKTEDTAMYYCVRGLRYLDYWGQGTTLTVSS
VL: not shown
B4: mAb F26G3 IgG2b subclass switch variant (antibody, V domains shown)
VH: EVQLVESGGGLVQPKGSLKLSCAASGFTFNTYAMNWVRQAPGKGLEWVARIRSKSNNYATYYADSVKDRFTISRDDSQSMLYLQMNNLKTEDTAMYYCVRGYYGWDYWGQGTSVTVSS
VL: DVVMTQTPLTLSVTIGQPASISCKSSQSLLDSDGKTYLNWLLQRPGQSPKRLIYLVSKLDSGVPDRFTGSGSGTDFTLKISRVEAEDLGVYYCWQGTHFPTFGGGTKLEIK
B5: mAb F24F2 IgG2a subclass switch variant (antibody, V domains shown)
VH: EVQLVESGGGLVQPKGSLKLSCAASGFTFNTYAMNWVRQAPGKGLEWVARIRSKSNNYATYYADSVKDRFTISRDDSQSMLYLQMNNLKTEDTAMYYCVRGLRYLDYWGQGTTLTVSS
VL: not shown
B6: mAb F24F2 IgG1 subclass switch variant (antibody, V domains shown)
VH: EVQLVESGGGLVQPKGSLKLSCAASGFTFNTYAMNWVRQAPGKGLEWVARIRSKSNNYATYYADSVKDRFTISRDDSQSMLYLQMNNLKTEDTAMYYCVRGLRYLDYWGQGTTLTVSS
VL: not shown

Biological target: T1, synthetic (γ-D-Glu)5 (not fully specified (residues 1, 2, 3, 4, 5))
T1 peptide: EEEEE

In order of falling Kd:
1. B2  45 µM
2. B5  18 µM
3. B6  18 µM
4. B1  13 µM
5. B3  9 µM
6. B4  6.7 µM
